This note sets out measurements from patent publication US20050019862.

The data set deals with T1, human plasminogen, P00747.
T1 chain: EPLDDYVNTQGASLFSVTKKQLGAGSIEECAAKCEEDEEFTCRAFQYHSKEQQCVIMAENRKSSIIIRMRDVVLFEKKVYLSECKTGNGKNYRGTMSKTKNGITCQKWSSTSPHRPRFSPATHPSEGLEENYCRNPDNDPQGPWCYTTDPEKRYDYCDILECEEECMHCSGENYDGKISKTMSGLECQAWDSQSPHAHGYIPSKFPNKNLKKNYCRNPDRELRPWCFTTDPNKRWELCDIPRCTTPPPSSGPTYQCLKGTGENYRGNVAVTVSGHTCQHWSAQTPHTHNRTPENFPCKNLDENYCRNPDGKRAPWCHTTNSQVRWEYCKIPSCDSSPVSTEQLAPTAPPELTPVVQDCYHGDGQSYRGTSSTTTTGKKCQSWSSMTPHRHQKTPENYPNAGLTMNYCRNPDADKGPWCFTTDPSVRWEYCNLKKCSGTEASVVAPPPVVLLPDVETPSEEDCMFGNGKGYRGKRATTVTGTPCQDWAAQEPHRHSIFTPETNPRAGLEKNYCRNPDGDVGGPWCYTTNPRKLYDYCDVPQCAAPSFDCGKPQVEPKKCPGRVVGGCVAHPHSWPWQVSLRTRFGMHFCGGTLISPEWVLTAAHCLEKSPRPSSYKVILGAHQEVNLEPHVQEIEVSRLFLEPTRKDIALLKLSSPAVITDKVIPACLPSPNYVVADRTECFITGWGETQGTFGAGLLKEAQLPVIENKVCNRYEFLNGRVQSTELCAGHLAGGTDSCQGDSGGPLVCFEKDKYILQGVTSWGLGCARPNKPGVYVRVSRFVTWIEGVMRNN

B1: recombinant staphylokinase (SAK) produced in E. coli from plasmid pOXYSAK-1 (protein)
chain: SSSFDKGKYKKGDDASYFEPTGPYLMVNVTGVDGKGNELLSPHYVEFPIKPGTTLTKEKIEYYVEWALDATAYKEFRVVELDPSAKIEVTYYDKNKKKEETKSFPITEKGFVVPDLSEHIKNPGFNLITKVVIEKK
Regarding B1, the “Specific activity of purified SAK protein” value is 1.75 U/µg protein.
